From patent US20250084152A1 (DUKE UNIVERSITY, published 2025)

Legend:
Assay in all cases: ELISA on LAH peptide
[1] = biological target: H3/X31 LAH peptide (LAH-Fc fusion protein) (Influenza A virus H3N2 A/Aichi/2/1968, UniProt P03436 421-475)
[2] = biological target: H5/VN04 LAH peptide (LAH-Fc fusion protein) (Influenza A virus H5 A/Vietnam/1203/2004, UniProt P87506 416-472)
[3] = biological target: B/MY04 LAH peptide (LAH-Fc fusion protein) (Influenza B virus B/Malaysia/2506/2004, UniProt P03461 425-480)

Measured: binding result

Sequence of B/MY04 LAH peptide (LAH-Fc fusion protein) (P03461 425-480 limits assumed): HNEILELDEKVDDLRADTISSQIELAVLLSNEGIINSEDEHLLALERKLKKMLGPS
Sequence of H5/VN04 LAH peptide (LAH-Fc fusion protein) (P87506 416-472 limits assumed): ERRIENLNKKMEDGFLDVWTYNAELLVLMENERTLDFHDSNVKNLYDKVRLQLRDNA
Sequence of H3/X31 LAH peptide (LAH-Fc fusion protein) (P03436 421-475 limits assumed): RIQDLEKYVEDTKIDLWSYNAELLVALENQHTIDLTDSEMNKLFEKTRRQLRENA

B1: S1V2-72 (antibody, V domains shown)
VH: QVQLVQSGAELKKPGASVKVSCKASGYTFTGNYIHWMRQVPGQGLEWMGWINPRTGDTHHAQKFQGRVDMTRDTSINTAYLELTRLESDDTALYYCARCVFATSQFDPWGQGTLVTVSS
VL: QSALTQPASVSGSPGQSITISCTGTNSDIGSHNLVSWYQQHPGKAPKVMIYDDSKRPSGVSNRFSGSKSGSTASLTISGLQSEDEADYYCCSYAGSSNWVFGGGTKLTLL
no binding: all assays above
